Paper PMC4478124

How the values were obtained:
Assay in all cases: SPR
[1] = biological target: MBP-P66M-D205A,D207A fusion protein (Borrelia burgdorferi) (UniProt H7C7N8)
[2] = biological target: MBP-P66M-Del202-208 fusion protein (Borrelia burgdorferi) (UniProt H7C7N8)
[3] = biological target: MBP-P66M fusion protein (wild-type middle portion of Borrelia burgdorferi P66, a.a. 170-404) (Borrelia burgdorferi) (UniProt H7C7N8)

Substance	Kd [1] [µM]	kon [1] [M⁻¹ s⁻¹]	Kd [2] [µM]	kon [3] [M⁻¹ s⁻¹]
purified recombinant human integrin αvβ3 (carrier free) (from UniProt P06756 31-1048; P05106 27-718) (receptor)	29.3	710	178	321000
purified recombinant mouse integrin αvβ3 (carrier free) (from UniProt P43406 31-1044; O54890 26-717) (receptor)	20.3	1450	264	112000
